Data on four molecules can be found in patent US20080027145A1, “Therapeutic Molecules and Methods for Generating and/or Selecting Same” (priority 2004, published 2008).

Test [1] deals with mouse Mcl-1 ΔN151 ΔC23 (mouse) (UniProt P97287). Nature of the test: Biacore solution competition against immobilised mouse wtBimBH3. Background: Surface plasmon resonance follows binding to a sensor surface in real time, without labels.
The target in test [2] is mouse A1 ΔC20 (mouse) (UniProt Q07440). The description is as above.
Sequence of mouse A1 ΔC20 (mouse) (Q07440 other isoform, or with tags, fused parts or gaps mutant): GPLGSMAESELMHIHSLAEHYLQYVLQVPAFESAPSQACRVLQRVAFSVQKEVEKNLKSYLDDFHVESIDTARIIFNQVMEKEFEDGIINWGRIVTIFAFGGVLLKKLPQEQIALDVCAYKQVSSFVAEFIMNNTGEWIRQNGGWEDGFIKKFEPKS
Another test deals with Bcl-2, BCl-xL and Bcl-w. Description: solution competition on Biacore.
Test [3] deals with mouse A1 ΔC20 (mouse) (UniProt Q07440). Nature of the test: solution competition on Biacore.

Sequence of mouse Mcl-1 ΔN151 ΔC23 (mouse) (P97287 other isoform, or with tags, fused parts or gaps mutant): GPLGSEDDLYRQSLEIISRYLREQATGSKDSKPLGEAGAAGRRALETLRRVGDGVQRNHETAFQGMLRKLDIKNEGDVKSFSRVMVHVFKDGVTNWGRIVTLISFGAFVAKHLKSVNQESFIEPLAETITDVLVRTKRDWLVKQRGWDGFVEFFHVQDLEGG

As a reminder, the IC50 is the concentration that gives 50% inhibition. Regarding NLWAAQRYGRELRRMSDEFVDSFKKG [Bad (103-128) BH3 peptide, human], the IC50 in test [1] is above 100 µM; in the test with mouse A1 ΔC20 (mouse) [2] it was 15 µM; with Bcl-2, BCl-xL and Bcl-w, 0.0053 to 0.03 µM; with mouse A1 ΔC20 (mouse) [3], 15 µM.

With HRAEVQIARKLQCIADQFHRLHTQ [m Bmf (128-151) BH3 peptide], the values for the IC50 (in test [1]; with mouse A1 ΔC20 (mouse) [2]) were 1.1 µM and 1.8 µM, respectively.

In turn, DIIRNIARHLAQVGDSMDRSIPPG [Bid (81-104) BH3 peptide, human] registered a half-maximal inhibitory concentration (IC50) in the test with mouse A1 ΔC20 (mouse) [2] of 0.0093 µM.

As to PAELEVECATQLRRFGDKLNFRQKLL [Noxa (18-43) BH3 peptide, human], the IC50 in test [1] turned out to be 0.024 µM; with mouse A1 ΔC20 (mouse) [2], 0.18 µM.
